Patent US12497460B2, “Anti-MSR1 antibodies and methods of use thereof” (REGENERON PHARMACEUTICALS, INC., priority 2018, dated 2025)

T1: His9-hMSR1 (human MSR1 extracellular domain) (Homo sapiens, UniProt P21757)
T1 construct: human MSR1 extracellular domain expressed with a N-terminal nonahistidine tag; His9 (nonahistidine) (N); purchased R&D Systems 2708-MS
T1 sequence (P21757 77-451 limits assumed): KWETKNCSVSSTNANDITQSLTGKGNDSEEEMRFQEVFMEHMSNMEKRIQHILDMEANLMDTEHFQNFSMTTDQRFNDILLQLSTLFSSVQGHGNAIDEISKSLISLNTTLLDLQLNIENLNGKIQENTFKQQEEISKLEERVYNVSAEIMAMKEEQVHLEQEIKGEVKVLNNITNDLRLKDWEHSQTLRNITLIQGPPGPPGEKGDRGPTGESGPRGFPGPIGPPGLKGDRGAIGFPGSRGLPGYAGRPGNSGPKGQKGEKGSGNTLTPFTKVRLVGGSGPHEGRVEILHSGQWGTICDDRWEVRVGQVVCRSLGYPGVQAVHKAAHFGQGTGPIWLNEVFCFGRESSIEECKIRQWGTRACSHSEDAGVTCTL

T2: PMA-treated THP-1 cells (endogenously expressed human MSR1) (Homo sapiens, UniProt P21757)
T2 construct: endogenous in cells; host or cells: THP-1 cells differentiated with PMA
T2 sequence (P21757 1-451): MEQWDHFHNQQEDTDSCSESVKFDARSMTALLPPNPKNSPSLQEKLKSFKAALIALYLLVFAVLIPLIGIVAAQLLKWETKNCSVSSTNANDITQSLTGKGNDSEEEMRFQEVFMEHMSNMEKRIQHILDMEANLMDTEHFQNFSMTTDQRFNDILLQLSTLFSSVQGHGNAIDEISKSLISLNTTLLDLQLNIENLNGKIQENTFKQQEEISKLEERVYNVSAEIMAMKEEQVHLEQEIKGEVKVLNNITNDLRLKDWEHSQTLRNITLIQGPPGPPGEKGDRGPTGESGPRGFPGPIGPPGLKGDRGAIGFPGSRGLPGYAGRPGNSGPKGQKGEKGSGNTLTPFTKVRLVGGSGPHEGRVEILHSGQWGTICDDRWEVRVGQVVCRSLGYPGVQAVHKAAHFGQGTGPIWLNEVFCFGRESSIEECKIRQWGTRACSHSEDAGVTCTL

T3: MSR1 on differentiated THP-1 cells (Homo sapiens, UniProt P21757)
T3 construct: endogenous in cells; host or cells: THP-1 cells differentiated with PMA
T3 sequence (P21757 1-451): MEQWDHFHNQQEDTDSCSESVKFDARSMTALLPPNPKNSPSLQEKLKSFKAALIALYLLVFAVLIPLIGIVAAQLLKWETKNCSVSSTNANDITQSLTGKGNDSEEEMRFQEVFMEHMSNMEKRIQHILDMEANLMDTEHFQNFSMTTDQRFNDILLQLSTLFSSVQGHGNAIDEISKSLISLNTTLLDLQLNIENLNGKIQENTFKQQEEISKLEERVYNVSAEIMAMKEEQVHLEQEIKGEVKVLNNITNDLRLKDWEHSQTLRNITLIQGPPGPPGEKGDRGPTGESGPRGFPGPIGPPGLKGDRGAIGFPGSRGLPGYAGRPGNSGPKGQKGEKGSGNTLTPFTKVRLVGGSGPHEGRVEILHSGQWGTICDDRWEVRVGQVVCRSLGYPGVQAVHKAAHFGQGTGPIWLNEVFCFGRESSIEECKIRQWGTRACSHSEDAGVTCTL

B1: H1H21227N-N297Q: "modified versions of 21227N (H1H21227N-N297Q and H1H21227N-N297D)"; anti-MSR1 antibody "with a N297Q single point mutation" (antibody, V domains shown)
VH: QVQLVQSGAEVKKPGASVKVSCKVSGYTLTELSIHWVRQVPGKGLEWMGGFDPEEGETIFAQEFRDRVTLTEDTSPDTAYMELSSLKSEDAAVYYCTTPRYCNNGICYDYWGQGTLVTVSS
VL: DIQMTQSPSSLSASVGDRVTITCRASQSISNYLNWYQQKPGKAPKLLIYTASSLQSGVPSRFSGSGSGTDFTLTISSLQTEDFATYYCQQSYSNFPITFGQGTRLEIKR
B2: H1H27734P-N297Q: one of "Twelve anti-MSR1 antibodies"; "made with an N297Q single point mutation in human Fcγ portion" (antibody, V domains shown)
VH: EVQLVESRGGLVQPGGSLRLSCAASGFTFSSYAMSWVRQAPGKGLEWVSAISGSGGSTFYADSVKGRFTISRDNSKNTVYLQMNSLRAEDTAVYYCAKALVLRFLEWLGDYWGQGTLVTVSS
VL: DIQMTQSPSTLSASVGDRVTITCRASQSISSWLAWFQQKPGKAPKLLIYKASSLESGVPSRFSGSGSGTEFTLTISSLQPDDFATYYCQQYKSYWTFGQGTKVEIKR
B3: H1H27731P-N297Q: one of "Twelve anti-MSR1 antibodies"; "made with an N297Q single point mutation in human Fcγ portion" (antibody, V domains shown)
VH: QLQLQESGPGLVKPSETLSLTCTVSGGSISRISYYWGWIRQPPGKGLEWIGSIYDSGSTYYNPSLKSRVTISIDTSKNQFSLKLSSVTAADTAVYYCVRYSSSSAFAFDYWGQGTLVTVSS
VL: DIQMTQSPSSVSASVGDRVTITCRASQGISSWLAWYQQKPGKAPKLLIYAASSLQSGVPSRFSGSGSGTDFTLTISSLQPEDFATYYCQQANSFPFTFGPGTKVDIKR
B4: H1H27754P-N297Q: one of "Twelve anti-MSR1 antibodies"; "made with an N297Q single point mutation in human Fcγ portion" (antibody, V domains shown)
VH: EVQLVESGGGLVQPGGSLRLSCAASGFTFRTYAMTWVRQAPGKGLDWVSAITGDGGNTYYADSVKGRFTISRDNSKNTLYLQMNSLRAEDTAIYYCAKDQRFSFALYYFDYWGQGTLVTVSS
VL: DIQMTQSPSSVSASVGDRVTITCRASQGISSWLAWYQQKPGNAPKLLIYAAFSLQSGVPSRFSGSGSGTDFTLTISSLQPEDFATYYCQQANNFPWTFGQGTKVEIKR

Assays:
[1] = target: HMM-mfMSR1 (monkey MSR1 extracellular domain); experiment: Biacore surface plasmon resonance binding kinetics of anti-MSR1 mAbs, antibody-capture format; conditions: analyte HMM-mfMSR1, NB = no binding observed; for kd: * = no dissociation observed, kd manually fixed at 1.00E−05; for ka: antibody-capture format; for Kd: calculated from kinetic rates; for t½: dissociative half-life
Sequence of HMM-mfMSR1 (monkey MSR1 extracellular domain) (as listed by the source): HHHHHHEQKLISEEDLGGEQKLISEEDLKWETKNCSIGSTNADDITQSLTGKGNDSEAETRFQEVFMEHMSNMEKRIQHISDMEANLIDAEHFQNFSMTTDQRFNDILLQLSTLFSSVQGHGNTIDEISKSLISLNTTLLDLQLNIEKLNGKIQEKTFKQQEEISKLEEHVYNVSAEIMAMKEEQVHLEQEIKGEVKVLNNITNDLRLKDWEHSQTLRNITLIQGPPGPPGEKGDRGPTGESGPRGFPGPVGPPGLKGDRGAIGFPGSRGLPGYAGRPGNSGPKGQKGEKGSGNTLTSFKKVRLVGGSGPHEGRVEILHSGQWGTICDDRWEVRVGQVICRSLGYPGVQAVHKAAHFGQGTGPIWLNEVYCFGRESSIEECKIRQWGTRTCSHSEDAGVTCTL
Experimental: (§1) Binding affinities and kinetic constants of human anti-MSR1 antibodies for different MSR1 reagents were determined by real-time surface plasmon resonance (Biacore 4000). All binding studies were performed in 10 mM HEPES, 150 mM NaCl, 3 mM EDTA, and 0.05% v/v Surfactant Tween-20, pH 7.4 (HBS-ET) running buffer at 25° C. and 37° C.
(§2) The association rate (ka) and dissociation rate (kd) were determined by fitting the real-time binding sensorgrams to a 1:1 binding model with mass transport limitation using Scrubber 2.0c curve-fitting software. Binding dissociation equilibrium constant (KD) and dissociative half-life (t½) were calculated from the kinetic rates as: […]

[2] = target: T1, His9-hMSR1 (human MSR1 extracellular domain); experiment: as above; conditions: analyte His9-hMSR1, NB = no binding observed; for kd: * = no dissociation observed, kd manually fixed at 1.00E−05; for ka: antibody-capture format; for Kd: calculated from kinetic rates; for t½: dissociative half-life
Experimental: as §1, §2

[3] = target: T2, PMA-treated THP-1 cells (endogenously expressed human MSR1); experiment: Electrochemiluminescence antibody binding assay on MSR1-expressing cells; assay type: cell-based
[4] = system: parental HEK293 cells; experiment: Electrochemiluminescence antibody binding assay, non-specific binding control cells; assay type: cell-based, human
[5] = target: T3, MSR1 on differentiated THP-1 cells; experiment: Binding and internalization of cell-surface expressed MSR1 in differentiated THP-1 cells; assay type: cell-based; conditions: 10 μg/mL antibody; for Total Binding at 37° C. / Total Internalized RFU: 37° C.
Experimental: Exemplary anti-MSR1 antibodies were assessed for their ability to bind and internalize MSR1 on MSR1-expressing cells.
The THP-1 cells were allowed to differentiate for 4 days at 37° C. in 5% CO2. […] The remaining two plates were incubated at 37° C. for 1 hour followed by fixation and staining for 20 minutes using a solution of 4% PFA+5 μM DRAQ5 diluted in PBS (internalization plates). After fixation, all plates were washed once with PBS. […] The remaining plates were incubated with PBS only. Confocal images were acquired on the Opera Phenix (Perkin Elmer) at 40× magnification. […] The total binding at 4° C. (RFU values of 4° C. unquenched wells), total binding at 37° C. (RFU values of 37° C. unquenched wells), the total internalized RFU, and % Internalization were determined for each antibody as shown in Table 14.
For all calculations, background fluorescence from unstained wells was subtracted from every well. Total internalized RFU was calculated as follows: Total RFU of 37° C. unquenched samples−Surface RFU at 37° C. Surface RFU is defined as unquenched RFU at 37° C.−quenched RFU at 37° C.)/QE. QE (quenching efficiency) is defined as: 1−(Total RFU of 4° C. quenched sample/Total RFU of 4° C. unquenched sample). The % Internalization was determined from the following formula: (Total internalized RFU at 37° C./Total RFU at 37° C.)*100.

Molecule	kd ([1]; 25° C.)	ka ([1]; 25° C.)	kd ([1]; 37° C.)	ka ([1]; 37° C.)	kd ([2]; 25° C.)	ka ([2]; 25° C.)	kd ([2]; 37° C.)	ka ([2]; 37° C.)	Ratio of 11 nM Antibody Binding Signal (RLU) to isotype control, PMA-treated THP-1 [3]	Ratio of 11 nM Antibody Binding Signal (RLU) to isotype control, HEK293 [4]	% Internalization [5]	Total Binding at 4° C. [5]	Total Binding at 37° C. [5]	Total Internalized RFU [5]	also measured
B1	7.51e-05 s⁻¹	1.36e+06 M⁻¹ s⁻¹	1.08e-05 s⁻¹	2.74e+06 M⁻¹ s⁻¹	4.89e-05 s⁻¹	1.23e+06 M⁻¹ s⁻¹	1.23e-05 s⁻¹	2.67e+06 M⁻¹ s⁻¹	5	1	78.5%	1800012	4110990	3226161 RFU	Kd ([1]; 25° C.): 0.0553 nM; t½ ([1]; 25° C.): 2.57 h; Kd ([1]; 37° C.): 0.00395 nM; t½ ([1]; 37° C.): 17.82 h; Kd ([2]; 25° C.): 0.0397 nM; t½ ([2]; 25° C.): 3.93 h; Kd ([2]; 37° C.): 0.0046 nM; t½ ([2]; 37° C.): 15.7 h
B2	0.00291 s⁻¹	423000 M⁻¹ s⁻¹	0.0032 s⁻¹	949000 M⁻¹ s⁻¹	0.00111 s⁻¹	420000 M⁻¹ s⁻¹	0.0019 s⁻¹	1.09e+06 M⁻¹ s⁻¹	21	14	–	482859	1151348	737425 RFU	–
B3	4.69e-05 s⁻¹	98200 M⁻¹ s⁻¹	0.000187 s⁻¹	278000 M⁻¹ s⁻¹	2.24e-05 s⁻¹	129000 M⁻¹ s⁻¹	0.000132 s⁻¹	286000 M⁻¹ s⁻¹	38	7	54.2%	1215319	1802404	977543 RFU	–
B4	1.76e-05 s⁻¹	235000 M⁻¹ s⁻¹	3.53e-05 s⁻¹	701000 M⁻¹ s⁻¹	1.00E−05* s^−1	290000 M⁻¹ s⁻¹	2.53e-05 s⁻¹	663000 M⁻¹ s⁻¹	66	18	90.0%	3077308	7161570	6446236 RFU	–
